Changes are numbered by the printed parent chain. Where only a bound is given, the exact number is not on record here.

Assay [1] concerns the target T1, receptor-binding domain (RBD) of the wild-type SARS-CoV-2 spike protein (SARS-CoV-2, UniProt P0DTC2 333-527).
T1 construct: also called SARS-CoV-2 RBD
In words: ELISA. To be noted: both partners purified. (In general: In an ELISA, binding on a coated surface is turned into a signal by an enzyme label.)

Assay [2] has as its target T1, receptor-binding domain (RBD) of the …. Briefly: BLI. The following applies: both partners purified.
The target is the same in assay [3]. In words: cell-based or functional assay.

B1: mRBD25 (antibody, V domains shown)
VH: QVQLQQSGPELVKPGASVKISCKASGYAFSNSWMNWVKQRPGKGLEWIGRIYPGDGDTNYNGKFKGKATLTADKSSSTAYMQLSSLTSEDSAVYFCANYYGDYWGQGTTLTVSS
VL: QIVLTQSPALMSASPGEKVTMTCSASSSVSYMYWYQQKPRSSPKPWIYLTSNLASGVPARFSGSGSGTSYSLTISSMEAEDAATYYCQQWSSNPYTFGGGTKLEIK
In assay [1], B1 yielded a half-maximal effective concentration (EC50) of 81.5 pM.

B2: hRBD10 (antibody, V domains shown)
VH: EVQLVESGGGLVQPGGSLRLSCSASGFTFTTYNMNWVRQAPGKGLEWVSYISSSSSTIYYADSVEGRFTISRDNAKNSLYLQMNSLRDEDTAVYYCARGVGATSYYYHGMDVWGQGTTVSVSS
VL: DIQMTQSPSSLSASVGDRVTITCRASQSIYSYLNWYKQKAGKAPKLLIYAASSLQSGVPSRFSGSGSGTDFTLTIISLQPEDFATYYCQQSYSTPPTFGQGTKVEIK
In the case of B2, the Kd in assay [2] turned out to be 173 pM.

B3: mRBD16 (antibody, V domains shown)
VH: QIQLVQSGPELKKPGETVKISCKASGYTLTEYPMHWVKQAPGKGFKWMGMIYTDTGEPTYAEEFKGRFAFSLETSASTAYLQINNLKNEDTATYFCVRAGPSFAMDYWGQGTSVTVSS
VL: NIVLTQSPASLAVSLGQRATISCRASESVDSYGNSFMHWYQQKPGQPPKLLIYLASNLESGVPARFSGSGSRTDFTLTIDPVEADDAATYYCQQNNEDPYTFGGGTKLEIK
As for B3, the EC50 in assay [1] was found to be 89.5 pM. This lies in the picomolar range.

B4: mRBD22 (antibody, V domains shown)
VH: QIQLVQSGPELKKPGETVKISCKASGYTFTEYPMHWVKQAPGKGFKWMGMIYTDTGEPTYAEEFKGRFAFSLETSASTAYLQINNLKNEDTATYFCVRGGYYYFDYWGQGTTLTVSS
VL: B3 VL with Y100W
Molecule B4 came in with an EC50 in assay [1] of 218 pM.

B5: mRBD11 (antibody, V domains shown)
VH: QVQLQQSGAELARPGASVKLSCKASGYTFISNGISWVKQRTGQGLEWIGEIYPRNGNTYYNEKFKGKATLTADKSSSTAYMELRSLTSEDSAVFFCARDYYYGNFDYWGQGTTLTVSS
VL: B3 VL
B5 yielded an EC50 in assay [1] of 82300 pM. This EC50 is about 380-fold higher than that of the molecule before.

B6: mRBD21 (antibody, V domains shown)
VH: B3 VH with L29F, E31K, F68C, A99W, P101G, F103Y, M105L
VL: B3 VL with N1D, L54R, V62I, D80N, A87V, N95S, Y100L, G104A, I110L
In assay [1], B6 returned a concentration for a half-maximal effect (EC50) of 180 pM.

B7: mRBD20 (antibody, V domains shown)
VH: B3 VH with F103Y
VL: B3 VL with V13M, Q42L
With B7, in assay [1], a half-maximal response (EC50) required 153 pM.

B8: mRBD15 (antibody, V domains shown)
VH: B3 VH with E10D, L29F, K46Q, A92S, F103Y
VL: B3 VL with L58V, Q93H, N95I
The molecule B8 returned an EC50 in assay [1] of 124 pM. The EC50 values of the last two molecules are within 1.5-fold of each other.

B9: mRBD19 (antibody, V domains shown)
VH: B3 VH with L29F, A99G, S102Y, F103Y
VL: B3 VL with Y100W
As to B9, a half-maximal effect in assay [1] (EC50) was put at 123 pM.

B10: mRBD2 (antibody, V domains shown)
VH: B5 VH with N104S
VL: DIQMTQSPSSLSASLGERVSLTCRASREISGYLTWLQQKPDGTIKRLIYAASTLDSGVPKRFSGSRSGSDYSLTISSLESEDFADYYCLQYASYPWTFGGGTKLEIK
For B10, the midpoint of the response in assay [1], the EC50, lay at 89.6 pM.

B11: hRBD14 (antibody, V domains shown)
VH: EVQLVESGGGLVQPGGSLRLSCAASGFSFSSSDMHWVRQATGKGLEWVSGIGTSGDTYYLGSVKGRFTISRDDAKNSFYLQMNSLRAGDTAVYYCARGEMAATGLWYYFDYWGQGTLVTVSS
VL: not shown
Regarding B11, binding in assay [2] was put at a Kd of 618 pM.

B12: mRBD24 (antibody, V domains shown)
VH: EVQLQQSGPDLVKPGASVKISCKASGYTFTDYYMNWVKQSHGKSLEWIGDINPNNGGTYYNQKFKGKATLTVDKSSSTAYMELRSLTSEDSAVYYCARQLRRWGQGTLVTVSA
VL: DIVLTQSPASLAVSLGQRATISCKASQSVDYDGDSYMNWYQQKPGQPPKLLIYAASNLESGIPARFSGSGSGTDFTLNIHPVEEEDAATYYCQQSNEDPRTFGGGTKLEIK
B12 showed a half-maximal effective concentration (EC50) in assay [1] of 63.5 pM.

B13: mRBD12 (antibody, V domains shown)
VH: QVQLQQSGAELARPGASVKLSCKASGYTFTSYGISWVKQRTGQGLEWIGEIYPRSGNTYYNEKFKGKATLTADKSSSTAYMEVRSLTSEDSAVYFCAREGGYGYVMDYWGQGTSVTVSS
VL: DIQMTQTTSSLSASLGDRVTISCRASQDISNYLNWYQQKPDGTVKLLIYYTSRLHSGVPSRFSGSGSGTDYSFTISNLEQEDIATYFCQQGNTLPWTFGGGTKLEIK
Regarding B13, a half-maximal response in assay [1] (EC50) required 109 pM.

B14: mRBD17 (antibody, V domains shown)
VH: B3 VH
VL: B13 VL with F73L, I83F, W96Y
Consider B14, for which the EC50 in assay [1] came to 14800 pM.

B15: mRBD10 (antibody, V domains shown)
VH: QVQLKQSGAELVRPGASVKLSCKASGYTFTDYYINWVKQRPGQGLEWIARIYPGSGNTYYNEKFKGKATLTAEKSSSTAYMQLSSLTSEDSAVYFCARDYGSSYVDYFDYWGQGTTLTVSS
VL: B13 VL with F73L, W96L, G100A, I106L
Take B15: the response in assay [1] was half-maximal at 189 pM (EC50).

B16: hRBD11 (antibody, V domains shown)
VH: QVQLQESGPGLVKPSQTLSLTCTVSGGSISSGGYYWSWIRQHPGKGLEWIGYIFYSGSTYYNPSLKSRVIISVDTSKNQFSLKLSSVTAADTAAYYCARVNRVYGSGSYSLDPWGQGTLVTVSS
VL: QSALTQPASVSGSPGQSITISCTGTSRDVGDYDYVSWYQQHPGKAPKLMIYEGSERPSGVSNRFSGSKSGNTASLTISGLQAEDEADYYCCSYTGSSTSFLFGTGTKVTVL
Take B16: binding in assay [2] was put at a Kd of 8870 pM.

B17: mRBD23 (antibody, V domains shown)
VH: QVQLQQPGAELVRPGSSVKLSCKASGYTFTSYWMHWVKQRPIQGLEWIGNIDPSDSETHYNQKFKDKATLTVDKSSSTAYMQLSSLTSEDSAVYYCTRPGSLRSRGWYFDVWGTGTTVTVSS
VL: DIVMTQAAPSVPVTPGESVSISCRSSKSLLHSNGNTYLYWFLQRPGQSPQLLIYRMSNLASGVPDRFSGSGSGTAFTLRISRVEAEDVGVYYCMQHLEYPYTFGGGTKLEIK
For B17, it took 304 pM to reach a half-maximal effect in assay [1] (EC50).

B18: mRBD4 (antibody, V domains shown)
VH: QVQLQQPGAELVMPGASVKLSCKASGYTFTSYWMHWVKQRPGQGLEWIGEIDPSDSYTNYNQKFKDKSTLTVDKSSSTAYMQLSSLTSEDSAVYYCARGGVYYYGSSHYFDYWGQGTTLTVSS
VL: B17 VL with L51F, Y101F, G105S
In assay [1], B18 showed a 50% effective concentration (EC50) of 202 pM.

B19: mRBD3 (antibody, V domains shown)
VH: QVQLQQPGAELVMPGTSVKLSCKASGYIFTSYWMHWVKQRPGQGLEWIGEIDPSDNYTNYNQKFKGKSTLTVDKSSSTAYMQLSSLTSEDSAVYYCARGGLYYYGSSYDAMDYWGQGTSVTVSS
VL: B17 VL with V90A, Y101F, G105S
For the molecule B19, a half-maximal response in assay [1] (EC50) required 102 pM.

B20: mRBD1 (antibody, V domains shown)
VH: QVQLQQPGAELVKPGASVKVSCKASGYTFTSYWMHWVKQRPGQGLEWIGRIHPSDSDTNYNQKFKGKATLTVDKSSNTAYMQLSSLTSEDSAVYYCAILDCYWYFDVWGTGTTVTVSS
VL: QIVLTQSPAIMSASPGEKVTMTCSASSSVSYMYWYQQKPGSSPRLLIYDTSNLASGVPVRFSGSGSGTSYSLTISRMEAEDAATYYCQQWSSYPLTFGAGTKLELK
With B20, a half-maximal response in assay [1] (EC50) required 134 pM.

B21: hRBD1 (antibody, V domains shown)
VH: QVQLVQSGSELKKPGASVKVSCKASGNTLTNHALNWVRQAPGQGLEWMGWINTNTGIPTYAQGFTGRFVFSLDTSVSTAYLQISSLKAEDTAVYYCARVGQTAIAALDDAFDIWGQGTMVTVSS
VL: not shown
The molecule B21 had a Kd in assay [2] of 17.1 pM. In assay [3], the other is 83 ng/mL.

B22: mRBD18 (antibody, V domains shown)
VH: QIQLVQSGPELKKPGETVKISCKASGYTFTDYPMHWVQQAPGKGFKWMGMIYTDTGEPTYAEEFKGRFAFSLETSASTAYLQINNLKNEDTATYFCVRWAGYFDYWGQGTTLTVSS
VL: DIVLTQSPASLAVSLGQRATISCRASESVDSYGNSFMDWYQQKPGQPPKLLIYRASNLESGIPARFSGSGSRTDFTLIINPVEADDVATYYCQQSNEHPLTFGAGTKLELK
In the case of B22, in assay [1], a half-maximal response (EC50) required 222 pM.

B23: mRBD5 (antibody, V domains shown)
VH: QVQLQQPGAELVKPGASVKVSCKASGYTFTSYWMHWVKQRPGQGLEWIGRIHPSDSDTNYNQKFKGKATLTVDKSSSTAYMQLSSLTSEDSAVYYCAIDWDGDYWGQGTTLTVSS
VL: DIVMSQSPSSLAVSAGEKVTMSCKSSQSLLNSRTRKNYLAWYQQKPGQSPKLLIYWASTRESGVPDRFTGSGSGTDFTLTISSVQAEDLAVYYCKQSYNLWTFGGGTKLEIK
As to B23, the EC50 in assay [1] amounted to 320 pM.

B24: mRBD6 (antibody, V domains shown)
VH: B23 VH with I98M, G102V
VL: B23 VL with W101L, G105A, I111L
As for B24, the EC50 in assay [1] stood at 393 pM.

B25: hRBD16 (antibody, V domains shown)
VH: EVQLVESGGALIQPGGSLRLSCAASGFTVSSNYMYWVRQAPGKGLEWVSLIYPGGSTFYADSVKGRFTISRDNSENTLYLQMNSLRAEDTAVYYCARGPYGDSNWGQGTLVTVSS
VL: DIQMTQSPSSLSASVGDRVTITCQASQDIRNYLNWYQQKPGKAPKLLIYDASNLKTGVPSRFSGSGSGTDFTFTISSLQPEDIATYYCQQYDNLPITFGQGTRLEIK
On to B25, for which, in assay [2], the Kd is under 1 pM.

The EC50 is the concentration at which the effect is half-maximal. High values mean lower potency in that assay, low ones higher potency in that assay. For orientation: Kd means a measure of binding affinity in units of concentration.
